From the supplement of paper PMC7877785
± gives the uncertainty stated by the source.

Experiment: self-splicing fitness, log relative to wild type (ln ratio); higher = more splicing; Tetrahymena group I intron in knt gene, E. coli kanamycin selection, DiMSum; sequences stand for … in CUCUCU…GGAGGGAAAAGUUAUCAGGCAUGCACCUGGUAGCUAGUCUUUAAACCAAUAGAUUGCAUCGGUUUAAAAGGCAAGACCGUCAAAUUGCGGGAAAGGGGUCAACAGCCGUUCAGUACCAAGUCUCAGGGGAAACUUUGAGAUGGCCUUGCAAAGGGUAUGGUAAUAAGCUGACGGACAUGGUCCUAACCACGCAGCCAAGUCCUAAGUCAACAGAUCUUCUGUUGAUAUGGAUGCAGUUCACAGACUAAAUGUCGGUCGGGGAAGAUGUAUUCUUCUCAUAAGAUAUAGUCGGACCUCUCCUUAAUGGGAGCUAGCGGAUGAAGUGAUGCAACACUGGAGCCGCUGGGAACUAAUUUGUAUGCGAAAGUAUAUUGAUUAGUUUUGGAGUACUCGUGGUCG
Outline: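 The eight P1ex-region nucleotides of an intron in the knt kanamycin-resistance gene on pET-22b(+) were all randomised and the library put into E. coli BL21(DE3). Six replicate transformations were grown overnight at 37°C or 30°C on LB agar with or without 25 μg/mL kanamycin, together with 100 μg/mL carbenicillin, 50 μM IPTG and 0.2% rhamnose. Colonies were pooled and amplicon-sequenced on an Illumina HiSeq 2500. Fitness from DiMSum is the error-weighted combination of wild-type-normalised replicate fold changes, kanamycin over none.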

| Sequence | self-splicing fitness (ln) (30 °C) | self-splicing fitness (ln) (37 °C) |
| --- | --- | --- |
| AAGAAGCAAUAUUACGACAG | -2.2 ± 0.11 | -0.487 ± 0.1 |
| CGAUAGCAAUAUUACGGUCU | -0.529 ± 0.072 | 0.511 ± 0.097 |
| UGCCAGCAAUAUUACGAAUU | -3.68 ± 0.26 | -3.3 ± 0.24 |
| AGCUAGCAAUAUUACGUGUA | -3.86 ± 0.18 | -1.48 ± 0.12 |
| GGUAAGCAAUAUUACGCUCU | -3.29 ± 0.32 | -2.16 ± 0.35 |
| CAUAAGCAAUAUUACGACAC | -2.18 ± 0.15 | -2.12 ± 0.27 |
| AGCAAGCAAUAUUACGAGGG | -3.29 ± 0.1 | -2.58 ± 0.15 |
| GCGAAGCAAUAUUACGACCU | -0.269 ± 0.073 | -0.573 ± 0.086 |
| AAACAGCAAUAUUACGGAAU | -3.81 ± 0.16 | -2.4 ± 0.14 |
| GUAGAGCAAUAUUACGCUGA | -2.33 ± 0.11 | -1.15 ± 0.14 |
| AACUAGCAAUAUUACGAAUU | -1.49 ± 0.076 | -0.396 ± 0.097 |
| GUAUAGCAAUAUUACGUAUU | -4.14 ± 0.37 | -1.44 ± 0.2 |
| GCUAAGCAAUAUUACGUUCG | -0.791 ± 0.097 | -0.25 ± 0.17 |
| AAUAAGCAAUAUUACGGAUC | -0.855 ± 0.087 | -0.124 ± 0.14 |
| CAACAGCAAUAUUACGACCC | -1.31 ± 0.13 | -2.62 ± 0.33 |
| AGCAAGCAAUAUUACGACUG | -0.672 ± 0.077 | -0.735 ± 0.1 |
| GAUCAGCAAUAUUACGGAGA | -2.08 ± 0.17 | -0.869 ± 0.14 |
| UGUAAGCAAUAUUACGAGGC | -1.16 ± 0.26 | -1.17 ± 0.41 |
| UCAAAGCAAUAUUACGAUAU | -3.62 ± 0.23 | -2.67 ± 0.18 |
| AUUGAGCAAUAUUACGUUUU | -3.05 ± 0.17 | -1.38 ± 0.22 |
| GACGAGCAAUAUUACGCGCC | -2.74 ± 0.19 | -1.59 ± 0.25 |
| AUGCAGCAAUAUUACGGGGU | -3.71 ± 0.17 | -2.88 ± 0.18 |
| CAUCAGCAAUAUUACGUAUA | -1.68 ± 0.095 | -0.354 ± 0.11 |
| GGCCAGCAAUAUUACGAUAC | -2.04 ± 0.11 | -0.501 ± 0.13 |

| Sequence | self-splicing fitness (ln) (30 °C) | self-splicing fitness (ln) (37 °C) |
| --- | --- | --- |
| CACUAGCAAUAUUACGUCUA | -2.25 ± 0.23 | -2.52 ± 0.29 |
| UUUAAGCAAUAUUACGGAGG | -2.95 ± 0.22 | -2.18 ± 0.27 |
| GCUAAGCAAUAUUACGAAUU | -2.39 ± 0.18 | -0.0664 ± 0.13 |
| CACUAGCAAUAUUACGACGU | -2.27 ± 0.14 | -1.8 ± 0.11 |
| UCCUAGCAAUAUUACGACAC | -0.225 ± 0.29 |  |
| UGGAAGCAAUAUUACGUAGU | -2.9 ± 0.27 | -1.41 ± 0.2 |
| UACGAGCAAUAUUACGUAUG | -3.49 ± 0.23 | -3.34 ± 0.24 |
| GAAGAGCAAUAUUACGUCCU | -2.59 ± 0.48 | -0.861 ± 0.29 |
| GCAUAGCAAUAUUACGAAUU | -2.48 ± 0.2 | -1.61 ± 0.2 |
| UGAUAGCAAUAUUACGAUCU | 0.499 ± 0.12 | 0.105 ± 0.16 |
| AGGGAGCAAUAUUACGGAUG | -4 ± 0.33 | -2.6 ± 0.31 |
| CAAGAGCAAUAUUACGUUAU | -4.08 ± 0.19 | -2.78 ± 0.17 |
| AACCAGCAAUAUUACGUUCU | -1.15 ± 0.043 | -0.678 ± 0.053 |
| GCUUAGCAAUAUUACGUCUG | -2.33 ± 0.16 | -1 ± 0.15 |
| ACACAGCAAUAUUACGUCGG | -1.65 ± 0.052 | -1.16 ± 0.071 |
| CCCAAGCAAUAUUACGGGCA | -3.96 ± 0.18 | -1.82 ± 0.11 |
| GGGAAGCAAUAUUACGAUCA | -0.768 ± 0.33 | -0.0795 ± 0.35 |
| AUCCAGCAAUAUUACGCGUC | -3.24 ± 0.12 | -1.3 ± 0.13 |
| GAUUAGCAAUAUUACGAGGC | -4.11 ± 0.46 | -1.02 ± 0.28 |
| UAUAAGCAAUAUUACGGCCA | -0.385 ± 0.15 | 0.169 ± 0.22 |
| AGGGAGCAAUAUUACGCCCA |  | -0.897 ± 0.34 |
| GUGAAGCAAUAUUACGUAUC | -1.08 ± 0.059 | 0.384 ± 0.068 |
| GUAGAGCAAUAUUACGGGUC | -2.19 ± 0.12 | -1.37 ± 0.12 |
